Data taken from PMC9160355.

target: Rho WT (Escherichia coli) (UniProt P0AG30); test: EMSA; settings: 25 mM Tris-HCl pH 8.0, 5 mM MgCl2, 50 mM KCl, 1 mM DTT, 0.1 mg/ml BSA; 5 nM RNA, 0-50 nM Rho; 37 °C 5 min; 4% native gel at 4 °C
Sequence (P0AG30 whole entry): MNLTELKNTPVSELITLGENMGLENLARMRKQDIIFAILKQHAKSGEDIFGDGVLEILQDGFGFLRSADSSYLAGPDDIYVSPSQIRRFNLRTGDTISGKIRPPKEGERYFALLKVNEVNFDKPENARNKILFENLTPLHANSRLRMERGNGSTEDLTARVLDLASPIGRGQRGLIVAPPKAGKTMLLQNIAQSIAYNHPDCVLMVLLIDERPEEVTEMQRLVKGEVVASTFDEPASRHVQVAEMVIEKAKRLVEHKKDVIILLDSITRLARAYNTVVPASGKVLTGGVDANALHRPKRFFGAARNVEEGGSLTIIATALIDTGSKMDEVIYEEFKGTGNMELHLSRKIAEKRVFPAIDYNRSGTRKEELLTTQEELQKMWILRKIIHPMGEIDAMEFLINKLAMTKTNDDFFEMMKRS

In order of rising Kd:
1. trac (rac) terminator RNA  3.08 nM
2. sodA terminator RNA  9.99 nM
3. setC terminator RNA  11.5 nM
4. yagM terminator RNA  11.8 nM
5. dmsA terminator RNA  16.1 nM
6. ydeT terminator RNA  16.3 nM
7. ydhQ terminator RNA  16.4 nM
8. ycfJ terminator RNA  18.5 nM
9. GGGAGAGCUGCUUGUUUAAAGCUGACUGGUUUUAUUGGAAUAGUGAAAUAGUCAACAUCAUACAUUAUAACAUCAGUUACUUUUCCACAAAGAAACUAAUCCAUUUAAGCGAAUAUCUCUGCACCUAAUAGUUAUAAAUGCCAUUUAACAGCCAGUUAUAGUACCACUUGAAACUAUAUUACCAACAAUAAUUAAUAGCUUUCGUAACAAUUUCCUUAUCUUUAAUUUGUAUUUUGCUAAGAUUUAUCUUAUGCUCACAAGUCGUAUUUCCAGAGGGGGAUAG [gfcA terminator RNA]  19.9 nM
10. gfcA terminator RNA  19.9 nM
11. gntX terminator RNA  23.2 nM
